Data: publication PMC7264293, “Multi-site-mediated entwining of the linear WIR-motif around WIPI β-propellers for autophagy” (Nature Communications, 2020)
No end group written: not given here.

How the values were obtained:
[1] = tested on: NRK cells with double knock out of ATG2A/ATG2B and stable expression of GFP-LC3; assay: Autophagic flux in ATG2A/ATG2B DKO NRK cells in the presence of bafilomycin A1; type: cell-based, rat; conditions: ATG2A/ATG2B-depleted NRK cells without ATG2A transfection; 10 nM, 2 h
Description: NRK cells with double knock out of ATG2A/ATG2B and stably transfected with GFP-LC3 were generous gifts from L.Y., Tsinghua University. DNA sequences encoding full-length ATG2A and its various mutants were cloned into the pCAG-Tandem-Strep-Flag vector. Cells were cultured in DMEM (GIBCO) supplemented with 10% (v/v) fetal bovine serum, 100 U/ml penicillin and 0.1 mg/ml streptomycin and were grown at 37 °C in a humidified atmosphere containing 5% (v/v) CO2. Cells were transfected with wild-type ATG2A and various mutants by the electroporation apparatus (Bio-Rad) according to the manufacturer’s instructions. After 48 h, cells were washed three times by PBS and fixed by 4% (w/v) paraformaldehyde. […] ATG2A and its various mutants were detected by immunofluorescence with the anti-Flag primary antibody (Sigma-Aldrich, F1804, 1:300 dilution) and dylight 594 secondary antibody (EarthOx, E032410-01, 1:500 dilution). Fluorescence images were obtained on an inverted confocal microscope (LSM 880, Carl Zeiss) equipped with a 100 × oil-immersion objective lens (NA = 1.30). […] All the fluorescence images were processed and analyzed using the ZEN imaging software (Carl Zeiss). […]
μm. (b) Quantification of the increment of LC 3 -positive structures with bafilomycin […]
A1 treatment. The increment o f LC 3 -positive structures per cell was quantified with […]
used for quantifi cation (n = 3) . […]

[2] = tested on: NRK cells with double knock out of ATG2A/ATG2B and stable expression of GFP-LC3; assay: LC3-positive structures in ATG2A/ATG2B DKO NRK cells transfected with ATG2A; type: cell-based, rat; conditions: transfection of full-length ATG2A into ATG2A/B-depleted NRK cells
Description: NRK cells with double knock out of ATG2A/ATG2B and stably transfected with GFP-LC3 were generous gifts from L.Y., Tsinghua University. DNA sequences encoding full-length ATG2A and its various mutants were cloned into the pCAG-Tandem-Strep-Flag vector. Cells were cultured in DMEM (GIBCO) supplemented with 10% (v/v) fetal bovine serum, 100 U/ml penicillin and 0.1 mg/ml streptomycin and were grown at 37 °C in a humidified atmosphere containing 5% (v/v) CO2. Cells were transfected with wild-type ATG2A and various mutants by the electroporation apparatus (Bio-Rad) according to the manufacturer’s instructions. After 48 h, cells were washed three times by PBS and fixed by 4% (w/v) paraformaldehyde. For bafilomycin A1 treatment, cells were cultured in the complete medium containing 10 nM bafilomycin A1 for 2 h before being fixed. ATG2A and its various mutants were detected by immunofluorescence with the anti-Flag primary antibody (Sigma-Aldrich, F1804, 1:300 dilution) and dylight 594 secondary antibody (EarthOx, E032410-01, 1:500 dilution). Fluorescence images were obtained on an inverted confocal microscope (LSM 880, Carl Zeiss) equipped with a 100 × oil-immersion objective lens (NA = 1.30). Confocal settings used for image capture were held constant in comparison experiments. All the fluorescence images were processed and analyzed using the ZEN imaging software (Carl Zeiss). […]

[3] = target: T1, WIPI3-Δloop (Homo sapiens, UniProt Q5MNZ6, DEL264-281/DEL75-80); assay: ITC assay, WIR-peptide and its mutants binding to WIPI3-Δloop; conditions: WIPI3-Δloop (Fig. 3e, Supplementary Figs. 6, 7)
T1 construct: GB1-His6 (cleaved yes); made in house; host or cells: Escherichia coli BL21(DE3)
T1 sequence (Q5MNZ6 with tags, fused parts or gaps DEL75-80/DEL264-281): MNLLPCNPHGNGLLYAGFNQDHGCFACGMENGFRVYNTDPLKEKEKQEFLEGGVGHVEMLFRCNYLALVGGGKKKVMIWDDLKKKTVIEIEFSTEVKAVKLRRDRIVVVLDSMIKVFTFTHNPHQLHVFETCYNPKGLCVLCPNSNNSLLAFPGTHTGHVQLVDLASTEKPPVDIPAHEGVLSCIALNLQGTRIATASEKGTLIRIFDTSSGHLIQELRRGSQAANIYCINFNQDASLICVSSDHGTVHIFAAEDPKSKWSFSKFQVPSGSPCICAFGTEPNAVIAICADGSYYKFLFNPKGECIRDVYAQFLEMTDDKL
Description: (§1) DNA sequences encoding human WIPI3, WIPI3-Δloop, and two ATG2A fragments (1358–1404 and 1374–1404) were each cloned into a modified pET32a vector. The generation of the fusion construct of WIPI3-Δloop with ATG2A(1374–1404) and the mutations in WIPI3 and the ATG2A fragment were performed by using the standard PCR-based mutagenesis method and confirmed by DNA sequencing. All the primers used in the study were listed in Supplementary Table 3. Recombinant proteins were expressed in Escherichia coli BL21(DE3) (Invitrogen, C6000-03) host cells at 16 °C. […] The eluted proteins were further purified by size-exclusion chromatography (Superdex-200 26/60, GE healthcare). For WIPI3 proteins, after cleavage of the tag, the resulting proteins were purified by another step of size-exclusion chromatography with the buffer containing 50 mM Tris-HCl, pH 8.0, 100 mM NaCl, 1 mM EDTA, 1 mM DTT. For ATG2A fragments, recombinant proteins were purified in the same buffer without cleavage of the tag.
ITC assay was performed using a MicroCalorimeter ITC200 (GE Healthcare Life Sciences, USA) at 25 °C. Prior to the experiment, the protein samples were dialyzed in the buffer containing 50 mM Tris-HCl, pH 8.0, 100 mM NaCl, 1 mM EDTA, and 1 mM DTT. WIPI3 proteins were put in the sample cell and GB1-tagged ATG2A fragments were in the syringe of the instrument. In each experiment, the ATG2A fragment was sequentially injected into the stirred calorimeter cell initially containing the WIPI3 protein sample with the injection sequence of 20 × 2 µl at 2-min intervals. The heat of dilution obtained by the titration of the ATG2A fragment into the buffer was subtracted. The integrated, corrected, and concentration-normalized peak areas of the raw data were finally fitted with a model of one binding site using ORIGIN 7.0 (OriginLab).

[4] = tested on: WIPI3-Δloop N19A/D21A; assay: ITC assay, WIR-peptide binding to WIPI3-Δloop N19A/D21A; parameters: species or system human; conditions: WIPI3-Δloop N19A/D21A mutant (Supplementary Fig. 5b)
Description: as §1
ITC assay was performed using a MicroCalorimeter ITC200 (GE Healthcare Life Sciences, USA) at 25 °C. […]
Supplementary Fig. 5 Structural analysis of the A -B loop of blade 1. […] (b) The binding affinity between the W IR -pept ide and th e W IP I3 -Δloop N19A/D21 A mutant determined b y IT C ex periments. […]

| Compound | effect of the WIR-peptide mutation on the binding, in words [3] | further results |
| --- | --- | --- |
| CO/C1=C\C(C)=C\[C@@H](C)[C@@H](O)[C@@H](C)C/C(C)=C/C=C/[C@H](OC)[C@@H]([C@@H](C)[C@@H](O)[C@H](C)[C@@]2(O)C[C@@H](O)[C@H](C)[C@@H](C(C)C)O2)OC1=O [bafilomycin A1] |  | increase of LC3-positive structures in the presence of bafilomycin A1, in words [1]: No obvious increase |
| ATG2A WT: full-length wild-type ATG2A, Tandem-Strep-Flag-tagged, expressed by transfection |  | rescue of the depletion defect (large LC3-positive clusters), in words [2]: could rescue the depletion defect |
| WIR-peptide D1393A: WIR-peptide with D1393A mutation (PRDGEPVVTQLHPGPIVVRAGYFSRPIGSTD; also: GB1 tag, end not given here, His6 tag, end not given here) | disrupted the binding |  |
| WIR-peptide V1380A: WIR-peptide with V1380A point mutation (PRDGEPAVTQLHPGPIVVRDGYFSRPIGSTD; also: GB1 tag, end not given here, His6 tag, end not given here) | affected the binding |  |
| WIR-peptide V1381A: WIR-peptide with V1381A point mutation (PRDGEPVATQLHPGPIVVRDGYFSRPIGSTD; also: GB1 tag, end not given here, His6 tag, end not given here) | decreased the binding more severely |  |
| WIR-peptide V1391Q: WIR-peptide with V1391Q point mutation (PRDGEPVVTQLHPGPIVQRDGYFSRPIGSTD; also: GB1 tag, end not given here, His6 tag, end not given here) | severely impaired the binding |  |
| WIR-peptide: GB1-tagged recombinant short fragment (1374–1404) of ATG2A, minimum WIPI-interacting region (PRDGEPVVTQLHPGPIVVRDGYFSRPIGSTD; also: GB1 tag, end not given here, His6 tag, end not given here) |  | binding of the WIR-peptide, in words [4]: abolished the binding |
